Data: patent publication US20190211097A1

Molecular target: human CD32a (FcgammaRIIa) on washed human platelets (human) (UniProt P12318)
Assay: cell-based or functional assay

human CD32a (FcgammaRIIa) on washed human platelets (human), sequence (P12318 34-317 limits assumed): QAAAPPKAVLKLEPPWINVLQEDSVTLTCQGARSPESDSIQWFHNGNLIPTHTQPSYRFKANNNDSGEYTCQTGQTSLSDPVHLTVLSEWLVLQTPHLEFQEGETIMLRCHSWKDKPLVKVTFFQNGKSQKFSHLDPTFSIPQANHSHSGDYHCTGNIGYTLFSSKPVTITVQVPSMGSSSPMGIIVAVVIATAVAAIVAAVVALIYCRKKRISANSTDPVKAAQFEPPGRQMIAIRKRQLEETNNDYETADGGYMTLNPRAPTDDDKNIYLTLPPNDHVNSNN
M90 anti-CD40L mAb + M91 anti-CD40L mAb + CD40L immune complex (a polyclonal immune complex), sequence (P29965 113-261, one chain of several): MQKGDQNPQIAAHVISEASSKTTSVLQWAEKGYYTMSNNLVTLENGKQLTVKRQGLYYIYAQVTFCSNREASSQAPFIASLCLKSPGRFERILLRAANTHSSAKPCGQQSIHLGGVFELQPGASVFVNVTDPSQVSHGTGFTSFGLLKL
M90 anti-CD40L mAb + CD40L immune complex, sequence (P29965 113-261, one chain of several): as above

Work on “M90 anti-CD40L mAb + CD40L immune complex (from UniProt P29965 113-261)” yielded a washed human platelet aggregation induced by the IC (IC concentration) of 250 nM.
“M90 anti-CD40L mAb + M91 anti-CD40L mAb + CD40L immune complex (a polyclonal immune complex) (from UniProt P29965 113-261)” gave a washed human platelet aggregation induced by the IC (IC concentration) of 1000 nM.
Substance “deglycosylated native mouse IV.3 IgG2b mAb (antibody)” has a mAb concentration that blocked 250 nM M90+CD40L IC-induced platelet aggregation of 7 nM.
In the case of “effector-deficient humanized IV.3.1 IgG1 E269R mAb (antibody)”, the mAb concentration that blocked 250 nM HIT-like IC-induced platelet aggregation is reported as 40 nM, the mAb concentration that blocked 500 nM M90+CD40L IC-induced platelet aggregation is reported as 6 nM and the mAb concentration that blocked 1000 nM M90+M91+CD40L IC-induced platelet aggregation is reported as 25 nM. For the same substance, the mAb concentration that blocked APS-like IC-induced platelet aggregation was 33 nM, the mAb concentration that did not inhibit 500 nM M90+CD40L IC-induced platelet aggregation was 2 nM and the mAb concentration that inhibited 500 nM M90+CD40L IC-induced platelet aggregation was 3 nM. For the same substance, the platelet activation by the combination of hIV.3.1 (25 nM), hAT-10 (90 nM) and MDE-8 (75 nM), all IgG1 E269R was 25 nM and the platelet aggregation by the combination of hAT-10 (2 nM), hIV.3.1 (150 nM) and MDE-8 (150 nM), all IgG1 E269R was 150 nM.
“native chimeric IV.3 human IgG1 mAb (antibody)” gave a mAb concentration needed to block 500 nM M90+CD40L IC-induced platelet aggregation of under 5 nM.
